For 13 variants, ratio to parent results are on record in paper PMC9396398, “Crystal structure of Ankyrin-G in complex with a fragment of Neurofascin reveals binding mechanisms required for integrity of the axon initial segment” (The Journal of Biological Chemistry, 2022).

B1: Nfasc 1198 to 1214 WT [not stated] / AnkG ANK repeats (residues 38-855, R1-24) [not stated] (parent)
chain 1: GEGQFNEDGSFIGQYTV
chain 2: KSDANASYLRAARAGHLEKALDYIKNGVDVNICNQNGLNALHLASKEGHVEVVSELLQREANVDAATKKGNTALHIASLAGQAEVVKVLVTNGANVNAQSQNGFTPLYMAAQENHLEVVRFLLDNGASQSLATEDGFTPLAVALQQGHDQVVSLLLENDTKGKVRLPALHIAARKDDTKAAALLLQNDTNADIESKMVVNRATESGFTPLHIAAHYGNINVATLLLNRAAAVDFTARNDITPLHVASKRGNANMVKLLLDRGAKIDAKTRDGLTPLHCGARSGHEQVVEMLLDRAAPILSKTKNGLSPLHMATQGDHLNCVQLLLQHNVPVDDVTNDYLTALHVAAHCGHYKVAKVLLDKKANPNAKALNGFTPLHIACKKNRIRVMELLLKHGASIQAVTESGLTPIHVAAFMGHVNIVSQLMHHGASPNTTNVRGETALHMAARSGQAEVVRYLVQDGAQVEAKAKDDQTPLHISARLGKADIVQQLLQQGASPNAATTSGYTPLHLSAREGHEDVAAFLLDHGASLSITTKKGFTPLHVAAKYGKLEVASLLLQKSASPDAAGKSGLTPLHVAAHYDNQKVALLLLDQGASPHAAAKNGYTPLHIAAKKNQMDIATSLLEYGADANAVTRQGIASVHLAAQEGHVDMVSLLLSRNANVNLSNKSGLTPLHLAAQEDRVNVAEVLVNQGAHVDAQTKMGYTPLHVGCHYGNIKIVNFLLQHSAKVNAKTKNGYTPLHQAAQQGHTHIINVLLQNNASPNELTVNGNTALAIARRLGYISVVDTLKVVTEEIMTTTTITEKHKMNVPETMNEVLDMS
B2: AnkG ANK repeats (residues 38-855, R1-24) [not stated] / Nfasc ankyrin-binding domain (ABD, residues 1187-1214) [not stated] (parent)
chain 1: SDDSLVDYGEGGEGQFNEDGSFIGQYTV
chain 2: B1 chain 2

The variants in the first experiment derive from B1. In words: ITC. To be noted: with AnkG ANK repeats (residues 38-855, R1-24); parent: 1.
For the variant chain 1 N6A, the ratio to parent worked out at 1. On to chain 1 T16A, for which the ratio to parent was 1. The same measure, in the same setting: with chain 1 D8K the figure was 23. Still for that read-out and setting: the result for chain 1 D8A reads 4; that for chain 1 I12Q, 3.

Take chain 1 F11Q: the ratio to parent stood at 4. For chain 1 S10A, the ratio to parent was 4.

Variants of B2 are the subject of another experiment. Put plainly: ITC. The following applies: with Nfasc ankyrin-binding domain (ABD, residues 1187-1214); parent: 1.
With chain 2 M311Q, the ratio to parent came out at 8. Same read-out and setting: the result for chain 2 H347A reads 8. Turning to chain 2 I240Q L273Q, the ratio to parent was 14. With chain 2 T302A N304A, the ratio to parent is 11.

Regarding chain 2 V245Q, the ratio to parent came to 6. The same measure, in the same setting: the result for chain 2 R281A Q314A reads 3.
